Assay [1] addresses αVβ6 headpiece (soluble, disulfide-linked: αv headpiece residues 1-594 with M400C and β6 headpiece residues 1-474 with I270C) (UniProt P06756). In words: fluorescence anisotropy; pH 5.0. (In general: Polarisation of emitted light reports the rotation of a fluorescent probe.)
Target sequence in this assay (P06756 other isoform, or with tags, fused parts or gaps M400C I270C, chain 1 of 2): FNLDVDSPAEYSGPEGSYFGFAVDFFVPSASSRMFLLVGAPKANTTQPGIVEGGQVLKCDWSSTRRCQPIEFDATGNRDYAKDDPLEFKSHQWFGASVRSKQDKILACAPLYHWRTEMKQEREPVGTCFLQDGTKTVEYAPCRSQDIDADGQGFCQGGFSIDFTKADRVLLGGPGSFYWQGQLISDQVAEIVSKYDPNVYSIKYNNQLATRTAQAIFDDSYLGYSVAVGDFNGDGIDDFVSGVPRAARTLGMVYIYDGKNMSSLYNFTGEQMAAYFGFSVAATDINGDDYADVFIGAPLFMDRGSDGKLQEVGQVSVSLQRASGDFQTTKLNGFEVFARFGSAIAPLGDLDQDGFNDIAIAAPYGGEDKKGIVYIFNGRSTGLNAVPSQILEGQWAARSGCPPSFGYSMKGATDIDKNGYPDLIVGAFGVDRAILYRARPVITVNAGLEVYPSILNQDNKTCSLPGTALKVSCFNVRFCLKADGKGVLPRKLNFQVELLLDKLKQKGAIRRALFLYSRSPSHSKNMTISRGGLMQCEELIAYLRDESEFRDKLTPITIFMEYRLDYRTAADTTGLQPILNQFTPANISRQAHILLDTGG
Target sequence in this assay (P18564 other isoform, or with tags, fused parts or gaps M400C I270C, chain 2 of 2, further chain): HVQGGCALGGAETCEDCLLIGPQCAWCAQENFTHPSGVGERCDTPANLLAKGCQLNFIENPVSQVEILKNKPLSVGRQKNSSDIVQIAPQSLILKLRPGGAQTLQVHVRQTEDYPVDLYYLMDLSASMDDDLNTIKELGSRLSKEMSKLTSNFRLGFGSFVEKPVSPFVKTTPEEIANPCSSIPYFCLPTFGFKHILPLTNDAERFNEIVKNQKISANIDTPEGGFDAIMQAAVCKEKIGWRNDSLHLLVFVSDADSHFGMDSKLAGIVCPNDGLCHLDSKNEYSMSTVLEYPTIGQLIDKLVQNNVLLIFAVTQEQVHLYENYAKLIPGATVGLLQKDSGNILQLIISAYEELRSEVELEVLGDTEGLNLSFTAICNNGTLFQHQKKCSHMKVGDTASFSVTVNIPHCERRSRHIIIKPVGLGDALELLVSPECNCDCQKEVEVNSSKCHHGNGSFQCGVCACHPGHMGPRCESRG
Assay [2] shares this target. The experiment in a line: fluorescence anisotropy; pH 6.0.
Target sequence in this assay (P06756 other isoform, or with tags, fused parts or gaps M400C I270C, chain 1 of 2): as the sequence (P06756 other isoform, or with tags, fused parts or gaps M400C I270C, chain 1 of 2) above
Target sequence in this assay (P18564 other isoform, or with tags, fused parts or gaps M400C I270C, chain 2 of 2, further chain): as the sequence (P18564 other isoform, or with tags, fused parts or gaps M400C I270C, chain 2 of 2, further chain) above
The target is the same in assay [3]. The experiment in a line: fluorescence anisotropy; pH 7.0.
Target sequence in this assay (P06756 other isoform, or with tags, fused parts or gaps M400C I270C, chain 1 of 2): as the sequence (P06756 other isoform, or with tags, fused parts or gaps M400C I270C, chain 1 of 2) above
Target sequence in this assay (P18564 other isoform, or with tags, fused parts or gaps M400C I270C, chain 2 of 2, further chain): as the sequence (P18564 other isoform, or with tags, fused parts or gaps M400C I270C, chain 2 of 2, further chain) above
Assay [4] shares this target. In words: fluorescence anisotropy; pH 8.0.
Target sequence in this assay (P06756 other isoform, or with tags, fused parts or gaps M400C I270C, chain 1 of 2): as the sequence (P06756 other isoform, or with tags, fused parts or gaps M400C I270C, chain 1 of 2) above
Target sequence in this assay (P18564 other isoform, or with tags, fused parts or gaps M400C I270C, chain 2 of 2, further chain): as the sequence (P18564 other isoform, or with tags, fused parts or gaps M400C I270C, chain 2 of 2, further chain) above
For assay [5] the target is unchanged. In words: fluorescence anisotropy; pH 9.0.
Target sequence in this assay (P06756 other isoform, or with tags, fused parts or gaps M400C I270C, chain 1 of 2): as the sequence (P06756 other isoform, or with tags, fused parts or gaps M400C I270C, chain 1 of 2) above
Target sequence in this assay (P18564 other isoform, or with tags, fused parts or gaps M400C I270C, chain 2 of 2, further chain): as the sequence (P18564 other isoform, or with tags, fused parts or gaps M400C I270C, chain 2 of 2, further chain) above
The target of assay [6] is αVβ3 headpiece (soluble, disulfide-linked: αv headpiece residues 1-594 with M400C and β3 headpiece residues 1-472 with Q267C) (UniProt P06756). The experiment in a line: fluorescence anisotropy competition.
Target sequence in this assay (P06756 other isoform, or with tags, fused parts or gaps M400C Q267C, chain 1 of 2): as the sequence (P06756 other isoform, or with tags, fused parts or gaps M400C I270C, chain 1 of 2) above
Target sequence in this assay (P05106 27-498 Q293C, chain 2 of 2, further chain): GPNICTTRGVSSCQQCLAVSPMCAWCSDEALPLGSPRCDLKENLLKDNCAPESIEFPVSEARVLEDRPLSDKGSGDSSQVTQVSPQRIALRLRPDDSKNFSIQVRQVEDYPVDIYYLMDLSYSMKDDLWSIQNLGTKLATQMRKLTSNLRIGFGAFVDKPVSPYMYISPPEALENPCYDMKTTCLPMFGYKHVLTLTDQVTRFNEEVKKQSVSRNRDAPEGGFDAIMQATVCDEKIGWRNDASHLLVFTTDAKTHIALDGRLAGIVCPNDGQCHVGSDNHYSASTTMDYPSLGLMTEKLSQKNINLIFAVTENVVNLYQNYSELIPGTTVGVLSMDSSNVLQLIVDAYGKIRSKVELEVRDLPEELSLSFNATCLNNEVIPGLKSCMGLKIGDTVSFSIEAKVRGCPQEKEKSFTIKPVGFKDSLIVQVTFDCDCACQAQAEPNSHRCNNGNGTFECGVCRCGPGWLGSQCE
Assay [7] shares this target. The experiment in a line: fluorescence anisotropy, competition with FITC-GRGDLGRL on αVβ3 headpiece.
Target sequence in this assay (P06756 other isoform, or with tags, fused parts or gaps M400C Q267C M400C Q267C, chain 1 of 2): as the sequence (P06756 other isoform, or with tags, fused parts or gaps M400C I270C, chain 1 of 2) above
Target sequence in this assay (chain, as listed by the source M400C Q267C M400C Q267C, chain 2 of 2): as the sequence (P05106 27-498 Q293C, chain 2 of 2, further chain) above
Assay [8] deals with αVβ6 headpiece (soluble, disulfide-linked: αv headpiece residues 1-594 with M400C and β6 headpiece residues 1-474 with I270C) (UniProt P06756). The experiment in a line: fluorescence anisotropy, competition with FITC-GRGDLGRL on αVβ6 headpiece.
Target sequence in this assay (P06756 other isoform, or with tags, fused parts or gaps M400C I270C M400C I270C, chain 1 of 2): as the sequence (P06756 other isoform, or with tags, fused parts or gaps M400C I270C, chain 1 of 2) above
Target sequence in this assay (chain, as listed by the source M400C I270C M400C I270C, chain 2 of 2): as the sequence (P18564 other isoform, or with tags, fused parts or gaps M400C I270C, chain 2 of 2, further chain) above
Assay [9] has the same target. In words: competitive fluorescence anisotropy on αVβ6 headpiece.
Target sequence in this assay (P06756 other isoform, or with tags, fused parts or gaps M400C I270C M400C I270C, chain 1 of 2): as the sequence (P06756 other isoform, or with tags, fused parts or gaps M400C I270C, chain 1 of 2) above
Target sequence in this assay (chain, as listed by the source M400C I270C M400C I270C, chain 2 of 2): as the sequence (P18564 other isoform, or with tags, fused parts or gaps M400C I270C, chain 2 of 2, further chain) above

Consider five molecules from patent US20250206802A1.

Turning to “FITC-GRGDLGRL (SEQ ID NO: 68), FITC-pro-TGF-β3 peptide”, the Kd in [1] amounted to 3810 nM; in [2] it was 2000 nM; in [3] it was 212 nM; in assay [4] it was 84.6 nM; in assay [5], 27.4 nM.

“GRGDSP (SEQ ID NO: 72) peptide of fibronectin” returned a dissociation constant Kd in assay [6] of 1600 nM.

On to GRGDLGRLK [nonapeptide containing RGD from pro-TGF-β3, … (SEQ ID NO: 75)], for which the fold lower affinity than for αVβ6 in assay [7] stood at 1000 fold. In assay [8], this molecule returned a Kd of 8.5 nM.

Consider HGRGD [TGF-β3 undecapeptide truncated from the C-terminus until Leu-244 is removed], for which, in assay [9], the step-wise drop in affinity (fold, against the peptide one residue longer) was found to be 10 fold.

As to HGRGDLGR [TGF-β3 undecapeptide truncated from the C-terminus until Leu-247 is removed], the step-wise drop in affinity (fold, against the peptide one residue longer) in assay [9] was 10 fold.

Usually Kd stands for the free concentration of one partner at which half of the binding sites on the other are occupied at equilibrium, for simple one-to-one binding. Higher therefore signals a looser complex.
